B1: Class B E-box probe (USF site, adenovirus major late promoter) (dsDNA)
DNA 1: GATCGGTGTAGGCCACGTGACCGGGTGT
DNA 2: GATCACACCCGGTCACGTGGCCTACACC
B2: Class C probe (AS-C T5 promoter) (dsDNA)
DNA 1: GATCGGCAGCCGGCACGCGACAGGGCC
DNA 2: GATCGGCCCTGTCGCGTGCCGGCTGCC
B3: Class A E-box probe (AS-C T5 promoter) (dsDNA)
DNA 1: GATCGTAGTCACGCAGGTGGGATCCCTA
DNA 2: GATCTAGGGATCCCACCTGCGTGACTAC

How the values were obtained:
[1] = biological target: T1, CR8 bHLH domain (BHLHE40/DEC1) (human, UniProt O14503 SEQ:52-107); assay: EMSA; 20 mM Hepes pH 7.6, 50 mM KCl, 10 mM DTT, poly(dI-dC), room temperature; self-competition partial at 50-fold and complete at 500-fold excess; conditions: tags: N-terminal His tag (pRSET-A, Xpress System), 16.6 kD with tag; chain copies: 2 (homodimer, stated); label: 32P 5' end; 5' GATC overhangs
T1 chain: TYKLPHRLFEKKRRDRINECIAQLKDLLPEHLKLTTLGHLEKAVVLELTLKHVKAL
Protocol: One strand of the oligonucleotide was labeled with [g-32P]ATP by T4 polynucleotide kinase, hybridized with three times excess of the opposite strand, and purified using MERmaid oligonucleotide purification kit (BIO 101). 150 ng of the protein was allowed to bind to 50,000 cpm (equivalent to 0.5 ng in a typical experiment) of the labeled probe for 15 min at room temperature in 20 mM Hepes, pH 7.6, 50 mM KCl, 10 mM DTT, 5% glycerol, 0.5 mM EDTA and 0.3 mg/ml BSA. Two microgram of poly (dI-dC) was added to each […] reaction as on-specific DNA. Samples were analyzed on a 5% native polyacrylamide gel and visualized by autoradiography.
To examine the relative binding affinity, a large excess of non-labeled oligonucleotide was added to the reaction as competitor. […] 0.5 ng of the radiolabeled Class B probe was incubated with CR8 bHLH in the absence (lane 1) or the presence (lanes 2 to 7) of either 25 ng (50-fold excess; lanes 2, 4 and 6) and 250 ng (500-fold excess; lanes 3, 5 and 7) of unlabeled competitors. […] Thus, since all these experiments were done in the absence of other HLH proteins, it appears that CR8 bHLH bound to the Class B sequence as a homodimer with the highest affinity.

[2] = biological target: T1, CR8 bHLH domain (BHLHE40/DEC1); assay: EMSA; same buffer; conditions: tags: N-terminal His tag (pRSET-A, Xpress System), 16.6 kD with tag; chain copies: 2 (homodimer, stated); label: 32P 5' end; 5' GATC overhangs
Excerpt: (§1) The oligonucleotide probes used for the electrophoretic mobility shift assay (EMSA) are as follows: the Class A site used was the CACCTG hexamer (CAGGTG for the opposite strand) from the T5 promoter region of the Drosophila AS-C (Villares, R. et al. (1987) *Cell* 550:415–424) (5'-[…]-3' (SEQ ID NO:17) and 5'-[…]-3' (SEQ ID NO:18) for the opposite strand), the Class B site was the CACGTG hexamer from the USF binding site in the adenovirus major late promoter (Gregor, P. D. et al. (1990) *Genes & Dev.* 4:1730–1740) (5'-[…]-3' (SEQ ID NO:19) and 5'-[…]-3') (SEQ ID NO:20), the Class C site was the CACGCG hexamer (CGCGTG for the opposite strand) from the AS-C T5 promoter (5'-[…]-3' (SEQ ID NO:21) and 5'-[…]-3') (SEQ ID NO:22), and the N-box (CACNAG) was the double hexamer sequence from the Enhancer of split [E(spl)] m8 promoter (Klimbt, C. et al. (1989) *EMBO J.* 8:203–210) (5'-[…]-3' (SEQ ID NO:23) and 5'-[…]-3' (SEQ ID NO:24). One strand of the oligonucleotide was labeled with [g-32P]ATP by T4 polynucleotide kinase, hybridized with three times excess of the opposite strand, and purified using MERmaid oligonucleotide purification kit (BIO 101). […] Samples were analyzed on a 5% native polyacrylamide gel and visualized by autoradiography.

[3] = biological target: T2, daughterless (da) bHLH domain (Drosophila melanogaster, UniProt P11420 P11420:554-607); assay: EMSA; positive control; conditions: tags: supplied by Dr. Michael Caudy, Cornell University Medical College; label: 32P 5' end; 5' GATC overhangs
T2 sequence: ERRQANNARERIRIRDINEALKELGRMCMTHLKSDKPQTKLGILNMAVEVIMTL
Excerpt: as §1

Row | Binder | binding result [1] | binding result [2] | binding result [3]
1 | B1 | binds | – | –
2 | B2 | – | binds | –
3 | B3 | – | no binding | binds
